Kd data for 2 molecules are collected here from patent US20230192820A1 (published 2023).

For this assay, the target named is stabilized trimer of the full ectodomain of SARS-CoV-2 spike protein (residues 1-1208, NIAID VRC7471) (SARS-CoV-2, UniProt P0DTC2 14-1208).

B1: MAb362 IgA1 (monomeric) (antibody, V domains shown)
VH: QVQLVESGGGVVQPGRSLRLSCAASGFSFSSYGMHWVRQAPGKGLEWVAVIWYDGSDKYYADSVKGRFTISRDNSKNTLYLQLNSLRAEDTAIYYCARERYFDWIFDFWGQGTLVTVSS
VL: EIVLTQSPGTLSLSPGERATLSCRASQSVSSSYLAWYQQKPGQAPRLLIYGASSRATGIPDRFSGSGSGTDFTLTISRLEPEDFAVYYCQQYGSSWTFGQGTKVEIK
In general, Kd refers to the constant that tells how readily two partners part at equilibrium. High values mean lower affinity, low ones higher affinity. As to B1, the affinity, expressed as Kd, was 0.17 nM.

B2: MAb362 IgG1 (antibody, V domains shown)
VH: QVQLVESGGGVVQPGRSLRLSCAASGFSFSSYGMHWVRQAPGKGLEWVAVIWYDGSDKYYADSVKGRFTISRDNSKNTLYLQLNSLRAEDTAIYYCARERYFDWIFDFWGQGTLVTVSS
VL: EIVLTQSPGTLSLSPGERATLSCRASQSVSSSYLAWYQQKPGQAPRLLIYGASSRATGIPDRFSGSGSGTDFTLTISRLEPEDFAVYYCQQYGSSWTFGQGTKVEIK
B2 returned a Kd of 27 nM.
